Data published in patent US8039438B2, “Synthetic peptides that cause F-actin bundling and block actin depolymerization” (The Regents of the University of California, priority 2003, dated 2011).

Key:
rabbit muscle actin = target: T1, rabbit muscle actin (Oryctolagus cuniculus, UniProt P68135); test: In vitro bundling of actin by peptides (co-polymerization, differential centrifugation, SDS gel); format: biochemical
T1 construct: Purified rabbit muscle actin (Cytoskeleton Inc., Denver, Mo.); purchased Cytoskeleton Inc; host or cells: rabbit muscle
Method: The peptides in Table 2 were added to polymerised actin in vitro at different molar ratios. Centrifugation was used to separate fractions containing F-actin, G-actin and bundled actin, which were then run out on […]. Purified rabbit muscle actin (Cytoskeleton Inc., Denver, Mo.) was depolymerized in Low Salt Buffer [LSB; 5 mM Tris-HCl, pH 8.0, 0.2 mM CaCl2, 0.2 mM ATP, 0.5 mM DTT, mM sucrose) for 1 h on ice and denucleated by centrifugation for 1 h at 100,000×g, 4° C. 13 μM monomeric actin was polymerized in vitro by addition of 1/50 vol. […] The samples were centrifuged for 15 min at 10,000×g at room temperature to pellet “bundled filaments”. The resulting supernatant was centrifuged for 1 h at 100,000×g at room temperature to separate F-actin filaments […]. The fractions were boiled in SDS-sample buffer and analyzed on a 10% SDS-Polyacrylamide gel stained with Coomassie.

MCF7 cells = test: Cytokinesis in MCF7 cells imaged after addition of peptide; format: cell-based; conditions: MCF7 cells electroporated with GFP-actin, peptide in DMSO, imaged up to 4 hours
Method: MCF7 cells were electroporated with GFP-actin and imaged (image not shown). After addition of peptide in DMSO, the MCF7 cells were continuously imaged for up to 4 hours. […] The actin filaments within the cells were observed by fluorescence and had the appearance of spikes. Thus it appears that treatment by the active peptide results in inhibition of cytokinesis and blocks cell division.

MDA 231 cells = test: Actin reorganization in MDA 231 cells electroporated with peptide, rhodamine-phalloidin stained; format: cell-based, human
Method: Referring now to FIG. 2, it can be shown that treatment with an active peptide results in actin organization in human mammary epithelial tumor cells. MDA 231 cells were electroporated with SS1 (panel A) or SS12 (panel B), fixed, and rhodamine-phalloidin stained. Control epithelial tumor cells were treated with SS1 (SEQ ID NO: 9) resulting in no effect on actin-filled lamellipodia (or ruffling) characteristic of crawling cells.
MDA 231 cells are a particularly aggressive tumor cell line crawling and moving from between tissues.

[1] = system: actin comet tails in Xenopus egg extracts; test: Actin comet-tail formation in cytoplasmic extracts; format: biochemical, Xenopus laevis
Method: In FIGS. 4A and 4B, in vitro polymerized actin forms comet tail from rhodamine-labeled actin added to Xenopus laevis egg cytoplasmic extract. This was set up according to the protocol in Taunton et al., J Cell Biol. 2000 Feb. 7; 148(3):519-30.
Crude Xenopus egg extract was prepared as described except that cytochalasin D was omitted (Murray and Kirschner, Nature. 1989 May 25; 339(6222):275-80). Cytosol and a heavy membrane fraction were prepared by centrifugation of the crude extract (2 h, 300.000 g max; BECKMAN SW-50 rotor). The viscous glycogen pellet beneath the membrane layer was discarded. Cytosol was further clarified by spinning for 15 min at 541,000 g max (BECKMAN TLA 100.3 rotor). Crude membranes (diluted with one volume of 2 M sucrose) and cytosol were snap frozen in separate aliquots for storage at −80° C. unless otherwise indicated. Clarified cytosol contained a small population of vesicles, but motility assays were far more robust (more comet tails over a longer time period) when cytosol was supplemented with the heavy membrane fraction.
For the standard assay, crude membranes in 1 M sucrose (20-μl aliquot, derived from ˜80 μl crude extract) were washed and resuspended in 14 μl buffer A (50 mM NaCl, 5 mM MgCl2, and 50 mM tris [pH 7.5]). To the membrane suspension were added 35 μl cytosol (derived from ˜80 μl crude extract), 0.3 μl rhodamine-labeled actin (prepared according to Kellogg et al., Development. 1988 August; 103(4):675-86), 3 μl PMA (20 μM stock in 10% DMSO), and 20 μl buffer A at 4° C. 20-μl samples were then warmed to room temperature. After 30-40 min, 2-μl aliquots were viewed with a Nikon E800 microscope to yield the photomicrographs of FIG. 4. Images were acquired with a Princeton Instruments cooled CCD camera (standard rhodamine filter set, Princeton Instruments, Trenton, N.J.) and analyzed with WINVIEW (Visitron System, Puchheim, Germany) or METAMORPH software (Princeton Instruments, Trenton, N.J.). Pixels having an intensity over a threshold value (set to a value greater than the background fluorescence in regions devoid of comet tails) were summed over 10 random fields to quantitate relative actin assembly.
Cytosol was supplemented with a crude membrane fraction, rhodamine-actin, 1 μM PMA and peptide SS2 or SS12 (1 μM). After incubating at room temperature for 20 min, samples were viewed by fluorescence. Actin comet tails formed in Xenopus cytoplasmic extracts where no SS2 or SS12 peptides were added as shown by the photographs A, B and E of FIG. 4.

[2] = target: T2, purified rabbit muscle actin (Oryctolagus cuniculus, UniProt P68135); test: Negative stain electron microscopy of actin polymerized in presence of peptide; format: biochemical; conditions: co-polymerization, molar ratio peptide:actin=2, negative stain electron microscopy
T2 construct: purified rabbit muscle actin in vitro were visualized by negative stain electron microscopy; from tissue; host or cells: rabbit muscle
Text: The actin bundles caused by co-polymerization of SS12 peptide with purified rabbit muscle actin in vitro were visualized by negative stain electron microscopy (FIG. 5). The bundles still show overall filamenteous structure about 3 times the width of actin filaments polymerized in vitro in the absence of SS12 peptide (FIG. 5A, B). The surface of the bundles is not smooth, but irregular, resembling attempts to branch or attachments of short actin bundles to the sides of the long ones (FIG. 5C). The peptide-bundled actin filaments are much shorter than the control filaments as visualized with rhodamine-phalloidin by fluorescence microscopy (data not shown).
Purified rabbit actin was polymerized in the presence or absence of the SS12 peptide and by absorption applied to a carbon coated copper grid. Negative contrastation was carried out with Pb-citrate and the dried grid was viewed in an Electron microscope at high magnifications (12,000× and 65,000×). […] Higher magnification identified a “modulated” decoration of the otherwise smooth filaments.

[3] = system: dextran-labeled electroporated cells; test: Change in number of dextran-labeled cells after electroporation with peptide; format: cell-based

bundling of actin during in vitro polymerization (rabbit muscle actin): most active | bundled actin upon inducing polymerization (rabbit muscle actin; 1:1 molar ratio peptide:actin, polymerization induced (PI +), FIGS. 6C, 6D): the bulk of the actin is bundled | bundled actin with peptide alone (rabbit muscle actin; 1:1 molar ratio peptide:actin, polymerization not induced, FIGS. 6C, 6D): half of the actin bundled | In vitro actin bundling activity (rabbit muscle actin; Tables 2 and 3, peptide co-polymerized with actin in vitro): active | free F-actin band (rabbit muscle actin; molar ratio 10:1, FIG. 6E): very small bands | free F-actin band (rabbit muscle actin; molar ratio 100:1, FIG. 6E lane 6): clearly no band of free F-actin | form of actin (rabbit muscle actin; molar ratio peptide to actin 50, FIG. 6F): all of the actin is in the bundled form | activity designation of the peptide in the sequence list (active / less active / inactive) (rabbit muscle actin; summary sequence table): SS12 active | width of bundles relative to actin filaments polymerized in the absence of peptide [2]: about 3 times the width
Sequence: GIVRKWISRFEVWPYL (SS12 active synthetic peptide)
cytokinesis and nuclear division (MCF7 cells): cytokinesis but not nuclear division was blocked | cell movement (MDA 231 cells; MDA 231 cells after peptide treatment): ceased movement | effect on actin-filled lamellipodia (MDA 231 cells; MDA 231 cells electroporated with peptide): no longer have lamellipodia | effect on actin comet tails ([1]; FIGS. 4C, 4D, 4F, concentration not given): complete disruption of the comet tails | actin comet tail formation ([1]; peptide 1 μM, 1 μM PMA, 20 min at room temperature): little or no actin comet tail formation | number of cells after 24 hours ([3]; compared to cells treated with the inactive peptide): decrease in the number of cells | time over which cell division was inhibited ([3]; observation period 36 hours, cells with 24 hr cell cycle): 36 h
